Results reported in patent US20160244527A1 (AFFITECH RESEARCH, published 2016).

Key:
[1] = target: T1, monkey (Macaca mulatta) CXCR4 (monkey (Macaca mulatta), UniProt P79394 1-352); assay: EasyCyte flow cytometry on HEK293T/17 cells transiently transfected with Macaca mulatta CXCR4, Fugene without DNA as negative control; scFv level according to the example, amount not given
T1 construct: whole, on cells; also called monkey CXCR4; monkey antigen
Method: FACS-binding analyses (EasyCyte) were performed using HEK-293 cells transiently transfected with plasmids encoding either, mouse (Gene bank accession number BC031665) or monkey (Macaca mulatta) CXCR4 (NCBI Accession number NP_001036110). Two experiments were performed, one using a-cMyc and PE-labelled goat anti-mouse IgG antibody, the second using a directly conjugated RPE-c-Myc antibody for detection. In addition, cross-reactivity on IgG level was analysed. In the latter case, antibody binding was detected with PE-conjugated goat anti-human IgG antibody.

[2] = target: T2, CXC chemokine receptor 4 (CXCR4), human (human, UniProt P61073 1-352); assay: cell-based or functional assay
[3] = target: T2, CXC chemokine receptor 4 (CXCR4), human; assay: EasyCyte flow cytometry, IgG titration (12 points, three-fold) on Ramos cells naturally expressing CXCR4; RPE goat anti-human IgG detection
Method: The cells were harvested from culture flasks, washed 2 times with PBS (350×g, 5 min, 4° C.) and resuspended in PBS containing 0.2% BSA and 0.09% NaN₃. 1×10⁵ cells per well were aliquoted into V-shaped 96-well plates (Greiner Bio-One, Frikenhausen, Germany). The cells were centrifuged (350×g, 5 min, 4° C.) and resuspended in 50 μl IgG (50 μg/ml) in PBS containing 0.2% BSA and 0.09% NaN₃. Titration was done in twelve points and three fold dilution. […] Cells were washed, resuspended in 200 μl PBS with 0.2% BSA and 0.09% NaN₃, and transferred to a U-shaped 96 well Costar (Corning, Schiphol-Rijik, The Netherlands) plate for flow cytometry using an Easy Cyte device (Guava Technologies, Hayward, Calif., USA).

[4] = target: T2, CXC chemokine receptor 4 (CXCR4), human; assay: flow cytometry (EasyCyte), IgG1 10 µg/ml on CCRF-CEM cells; PBS negative control 3.11
Method: The natural CXCR4⁺ expressing cell line CCRF-CEM was harvested from the culture flasks, washed 2 times with PBS supplemented with 0.2% BSA and 0.09% NaN₃ buffer and aliquoted at 1×10⁵ cells per well into V-shaped 96-well plates (Greiner Bio-One, Frickenhausen, Germany). Cells were pelleted by centrifugation (400 g, 5 min) and then incubated for 60 min at 4° C. with 50 μl IgGs diluted to 10 μg/ml in PBS supplemented with 0.2% BSA and 0.09% NaN₃ buffer. The supernatants were aspirated after a centrifugation step at 400 g for 5 min and the cells were washed another two times with 100 μl PBS supplemented with 0.2% BSA and 0.09% NaN₃ each wash was followed by a centrifugation step (5 min at 400 g). After, the cells were stained for 30 minutes at 4° C. with 50 μl of rPE-conjugated Goat anti-human IgG (AbD Serotec) diluted to 5 μg/ml in with PBS supplemented with 0.2% BSA and 0.09% NaN₃ and incubated for 30 minutes at 4° C. The cells were washed again and re-suspended in 200 μl PBS with 0.2% BSA and 0.09% NaN₃ and transferred to a U-shaped 96-well plate (Corning) for flow cytometry using an EasyCyte device (Guava Technologies, Hayward, Calif., USA).

[5] = target: T2, CXC chemokine receptor 4 (CXCR4), human; assay: cell-based or functional assay; remark: listed apart in the source
[6] = target: T2, CXC chemokine receptor 4 (CXCR4), human; assay: EasyCyte flow cytometry, 0.5 µg scFv on 1x10^5 CXCR4-transfected versus non-transfected HEK293T cells; anti-cMyc and RPE goat anti-mouse IgG detection
Method: The DT40+CXCR4, HEK293+CXCR4, DT40 and HEK293 cells were harvested from culture flasks, washed 2 times with PBS (400×g, 5 min, 4° C.) and resuspended in PBS containing 0.2% BSA and 0.09% NaN₃. 1×10⁵ cells per well were aliquoted into V-shaped 96-well plates (Greiner Bio-One, Frikenhausen, Germany). The cells were centrifuged (400×g, 5 min, 4° C.) and resuspended in 50 μl ScFvs (10 μg/ml) in PBS containing 0.2% BSA and 0.09% NaN₃. […] After 1 hour incubation (4° C.), the cells were washed three times with 100 μl PBS with 0.2% BSA and 0.09% NaN₃ and incubated for 30 minutes at 4° C. with RPE conjugated goat anti-mouse IgG (F0479, Dako, Denmark) diluted to 5 μg/ml in PBS with 0.2% BSA and 0.09% NaN₃. Cells were washed, resuspended in 200 μl PBS with 0.2% BSA and 0.09% NaN₃, and transferred to a U-shaped 96 well Costar (Corning, Schiphol-Rijik, The Netherlands) plate for flow cytometry using an Easy Cyte device (Guava Technologies, Hayward, Calif., USA).

T2 sequence (P61073 whole entry): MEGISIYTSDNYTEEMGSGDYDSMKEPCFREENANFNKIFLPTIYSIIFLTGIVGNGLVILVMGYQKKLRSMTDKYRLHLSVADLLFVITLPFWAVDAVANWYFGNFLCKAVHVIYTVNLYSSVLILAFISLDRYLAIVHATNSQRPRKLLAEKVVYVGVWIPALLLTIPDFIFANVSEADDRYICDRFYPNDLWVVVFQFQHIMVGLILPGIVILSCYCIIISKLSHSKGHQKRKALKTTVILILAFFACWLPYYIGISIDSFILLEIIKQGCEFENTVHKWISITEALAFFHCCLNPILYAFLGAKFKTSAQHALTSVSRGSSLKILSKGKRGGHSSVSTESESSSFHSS
T1 sequence (P79394 whole entry): as the sequence (P61073 whole entry) above, with M24I, N35H, K38R, R146K, N176S, V214D counted along it

| Binder | binding result [1] | median value (EasyCyte fluorescence) [4] | ADCC, EC50 (ng/mL), IgG [5] [ng/mL] | ADCC, EC50, IgG, molar [5] [nM] | ADCC, Max killing (%), CCRF-CEM cells with human PBMCs, IgG [5] [%] | other results |
| --- | --- | --- | --- | --- | --- | --- |
| B-1M22 scFv (scFv, VH-linker-VL scFv expressed in E. coli TG1 from pHOG21; also called scFv B-1M22) scFv: QVQLVQSGAEVKKPGSSVKVSCKASGGTFSSYAISWVRQAPGQGLEWMGGIIPIFGTANYAQKFQGRVTITADESTSTAYMELRSLRSDDTAVYYCARDRERWLQSAGDYWGQGTLVTVSSKLSGSASAPKLEEGEFSEARVQPVLTQSPSVSVAPGQTARITCGGNNIGSKSVHWYQQKPGQAPVLVVYDDSDRPSGIPERFSGSNSGNTATLTISRVEAGDEADYYCQVWDSSSDHWVFGGGTKLTVLAAAGSEQKLISEEDLNSHHHHHH | binds | – | – | – | – | – |
| 9N10 IgG1 (antibody, V domains shown, Full length human IgG1 with kappa light chain) VH: QVQLQESGGGLVHPGGSLRLSCAASGFTFSSYWMHWVRQAPGKGLVWVSRINSDGSSTSYADSVKGRFTISRDNAKNTLYLQMNSLRAEDTAVYYCARKILGVGARSRRYFDYWGQGTMVTVSS VL: DIVLTQTPDSLAVSLGETTTINCKSSQSVLHSSNNKNYLAWYQQKPGQPPKLLIYWASTRESGVPDRFSGSGSGTDFTLTISNLQPEDVAFYYCLQYSTFPRTFGQGTKVEIKR | – | – | – | – | – | IC50 of inhibition of SDF-1α induced calcium flux, CCRF-CEM cells, IgG [2]: 3.85 nM; fold efficiency in inhibition of calcium flux against C-9P21 IgG [2]: ~8 fold; EC50 (read off the curve) [3]: ~10 nM |
| C-9P21 IgG1 (antibody, V domains shown, Full length human IgG1 with kappa light chain; expressed from pLNO, protein A purified, monomer by SEC; also called IgG C-9P21) VH: QVQLQESGGGLVHPGGSLRLSCAASGFTFSSYWMHWVRQAPGKGLVWVSRINSDGSSTSYADSVKGRFTISRDNAKNTLYLQMNSLRAEDTAVYYCARKILGVGARSRRYFDYWGQGTMVTVSS VL: ETTLTQSPGTLSLSPGERATLSCRASQSVVSNYLAWYQQKPGQAPRLLISGASNRATGISDRFSGSGSGADFTLTISRVEPEDSAVYYCQQFDKSTWTFGQGTKVEIKR | – | 626 | 1850 | 12.3 | 63.5 | IC50 of inhibition of SDF-1α induced calcium flux, CCRF-CEM cells, IgG [2]: 29 nM |
| C-1I24 scFv (scFv, VH-linker-VL scFv expressed in E. coli TG1 from pHOG21; also called scFv C-1I24; C-1124) scFv: QVQLVQSGGGVVQPGRSLRLSCAASGFTFSSYGMHWVRQAPGKGLEWVAVISYDGSNKYYADSVKGRFTISRDNSKNTLYLQMNSLRAEDTAVYYCAKDLPITRGTGADYWGQGTLVTVSSKLSGSASAPKLEEGEFSEARVQSVLIQPASVSGSPGQSITISCTGTSSDVGGYNYVSWYQQHPGKAPRLMIYDVTSRPSGVSNRFSGSKSGNTASLTISGLQAEDEADYYCSSYAGSYSVVFGGGTKVTVLAAAGSEQKLISEEDLNSHHHHHH | binds | – | – | – | – | binding result [6]: binds |
| C-9P21 scFv (scFv, VH-linker-VL scFv expressed in E. coli TG1 from pHOG21; In the migration and ADCC assays it was cross-linked with anti-cMyc antibody; also called scFv C-9P21) scFv: QVQLQESGGGLVHPGGSLRLSCAASGFTFSSYWMHWVRQAPGKGLVWVSRINSDGSSTSYADSVKGRFTISRDNAKNTLYLQMNSLRAEDTAVYYCARKILGVGARSRRYFDYWGQGTMVTVSSKLSGSASAPKLEEGEFSEARVETTLTQSPGTLSLSPGERATLSCRASQSVVSNYLAWYQQKPGQAPRLLISGASNRATGISDRFSGSGSGADFTLTISRVEPEDSAVYYCQQFDKSTWTFGQGTKVEIKAAAGSEQKLISEEDLNSHHHHHH | binds | – | – | – | – | IC50 of inhibition of SDF-1 induced migration of CCRF-CEM cells (Boyden chamber; scFv cross-linked with anti-cMyc) [2]: 2.9 mg/L; IC50 of inhibition of ligand induced migration of CCRF-CEM cells, molar [2]: ~100 nM; ADCC, EC50 (ng/mL), scFv cross-linked with chimeric anti-cMyc IgG1 [5]: 2.7 ng/mL; ADCC, EC50, scFv, molar [5]: 0.09 nM |
| D-1K21 IgG1 (antibody, V domains shown, Full length human IgG1 with kappa light chain; expressed from pLNO, protein A purified, monomer by SEC; also called IgG D-1K21) VH: not shown VL: DIQMTQSPSTLSASVGDRVTITCRASQSIGGSLAWYQQKPGKGPNLLIYAASTLQSGVPSRFSGSGSGTEFTLTISSLQPEDSATYYCQHYESYPLSFGGGTKLEIKR | – | 179 | 79.9 | 0.5 | 25.7 | – |
| C-1I24 IgG1 (antibody, V domains shown, Full length human IgG1 with lambda light chain; expressed from pLNO, protein A purified, monomer by SEC; also called IgG C-1I24; C-1124) VH: QVQLVQSGGGVVQPGRSLRLSCAASGFTFSSYGMHWVRQAPGKGLEWVAVISYDGSNKYYADSVKGRFTISRDNSKNTLYLQMNSLRAEDTAVYYCAKDLPITRGTGADYWGQGTLVTVSS VL: QSVLIQPASVSGSPGQSITISCTGTSSDVGGYNYVSWYQQHPGKAPRLMIYDVTSRPSGVSNRFSGSKSGNTASLTISGLQAEDEADYYCSSYAGSYSVVFGGGTKVTVLG | – | 911 | 49.2 | 0.3 | 65 | CDC of Ramos cells in presence of human serum, EC50, IgG [2]: 0.7 mg/L |
| B-1M22 IgG1 (antibody, V domains shown, Full length human IgG1 with lambda light chain; expressed from pLNO, protein A purified, monomer by SEC; also called IgG B-1M22) VH: QVQLVQSGAEVKKPGSSVKVSCKASGGTFSSYAISWVRQAPGQGLEWMGGIIPIFGTANYAQKFQGRVTITADESTSTAYMELRSLRSDDTAVYYCARDRERWLQSAGDYWGQGTLVTVSS VL: QPVLTQSPSVSVAPGQTARITCGGNNIGSKSVHWYQQKPGQAPVLVVYDDSDRPSGIPERFSGSNSGNTATLTISRVEAGDEADYYCQVWDSSSDHWVFGGGTKLTVLG | – | 1080 | 116 | 0.8 | 100 | – |
